Numbering of substitutions follows the chain as printed.
B1: CAR comprising scFv-13′ (SEQ ID NO: 69) (other)
chain: DIVLTQSPSSLSASVGDRATISCRASESVSFLGINLIHWYQQKPGQAPKLLIYLASNLETGVPARFSGSGSGTDFTLTISSVEPEDVAVYYCLQSRTLPRTFGQGTKVEIKGSTSGSGKPGSGEGSTKGQIQLVQSGPELKKPGGSVKISCAASGYTFTSYSINWVRQAPGKGLEWVGWINTETREPAYAQGFTGRFTFSADTSKSTAYLQMNSLRAEDTAVYYCALDYLYSLDFWGQGTLVTVSS
notes: CAR on mRNA-electroporated human CD8+ T cells; Only the scFv is identified; not shown: rest of the CAR (hinge, transmembrane, cytoplasmic domains) not specified for this construct
B2: CAR comprising scFv-Y32 (SEQ ID NO: 57) (other)
chain: DIVLTQSPSSLSASVGDRATISCRASESVTILGSHLIHWYQQKPGQAPKLLIQLASNVQTGVPARFSGSGSGTDFTLTISSVEPEDVAVYYCLQSRTIPRTFGQGTKVEIKGSTSGSGKPGSGEGSTKGQIQLVQSGPELKKPGGSVKISCAASGYTFTDYSINWVRQAPGKGLEWVGWINTETREPAYAYDFRGRFTFSADTSKSTAYLQMNSLRAEDTAVYYCALDYSYAMDYWGQGTLVTVSS
notes: as for B1
B3: CAR comprising scFv-12′ (SEQ ID NO: 68) (other)
chain: B2 chain with R96K, T97N, I98F, D160S, S162D, S230L, A232S, M233L, Y235F
notes: as for B1
B4: CAR comprising scFv-21′ (SEQ ID NO: 70) (other)
chain: B2 chain with Q53N, Q59N
notes: as for B1
B5: CAR comprising scFv-Y37 (SEQ ID NO: 60) (other)
chain: DIVLTQSPASLAVSPGQRATITCRASESVTILGSHLIHWYQQKPGQPPKLLIQLASNVQTGVPARFSGSGSGTDFTLTISSVEPEDTANYYCLQSRTIPRTFGQGTKVEIKGSTSGSGKPGSGEGSTKGQIQLVQSGPELKKPGGSVKISCKASGYTFTDYSINWVRQAPGKGLEWVGWINTETREPAYAYDFTGRFTFSADTSKSMAYLQINSLRAEDTAVYYCALDYSYAMDYWGQGTLVTVSS
notes: as for B1

molecular target: T1, phycoerythrin (PE)-conjugated BCMA (Recombinant Human TNFRSF17 protein, Fc/His-tagged, R-PE labeled); Creative … (human, UniProt Q02223 1-54, R-PE labeled); test: flow cytometry; CAR T cells stained with BCMA-PE, 3 days after electroporation
T1 construct: Bought reagent; also called BCMA-PE; not shown: Fc/His tag of the bought reagent
T1 sequence: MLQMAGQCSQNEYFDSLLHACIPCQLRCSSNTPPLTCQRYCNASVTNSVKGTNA
Protocol: (§1) CAR T cells obtained from the above-described process were tested for viability, CAR protein expression, BCMA binding, and cytotoxicity, i.e., the ability to kill BCMA+ myeloma (tumor) cells. Viability, CAR expression, and BCMA binding were determined by flow cytometry on a GUAVA® […]® 12HT Flow cytometer (EMD Millipore). To test viability, a sample of the CAR T cells was mixed with propidium iodide and run on the flow cytometer with electronic gating on fluorescence in the near infrared channel. To test CAR protein expression and BCMA binding, a sample of the CAR T cells was incubated with 0.4 ug/mL of phycoerythrin (PE)-conjugated BCMA (Recombinant Human TNFRSF17 protein, Fc/His-tagged, R-PE labeled; Creative Biomart, Shirley, N.Y.). CAR expression was assessed on the flow cytometer with electronic gating on fluorescence in the yellow channel to detect presence or absence of emission from BCMA-PE on CAR-positive and CAR-negative cells. BCMA binding was determined by measuring the intensity of fluorescence in the yellow channel to determine the relative quantity of BCMA-PE bound to labelled CAR-positive cells. For the viability, expression, and BCMA binding assays, CD8+ T cells electroporated without mRNA (CAR-negative T Cells) were tested as a parallel control.
For each of the mRNA constructs, CAR T cells were prepared by transfection into human CD8+ cells, as described in Example 1. The CAR T cells made from each mRNA construct were then tested 3 days after electroporation for BCMA binding and tumor killing, as described in Example 1.

Binder | BCMA Binding (arbitrary units)
B1 | 230
B2 | 343
B3 | 446
B4 | 404
B5 | 381

molecular target: T2, human BCMA on cells (human, UniProt Q02223 1-184); test: cell-based or functional assay
T2 sequence: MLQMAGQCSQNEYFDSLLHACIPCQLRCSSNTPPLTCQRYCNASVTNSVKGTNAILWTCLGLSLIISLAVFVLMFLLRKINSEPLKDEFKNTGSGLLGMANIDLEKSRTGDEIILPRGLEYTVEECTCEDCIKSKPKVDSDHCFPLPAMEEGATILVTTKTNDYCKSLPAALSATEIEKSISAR

Binder | Killing (% killed), Effector:target ratio of 1:10 [%]
B2 | 85
B5 | 83

molecular target: T1, phycoerythrin (PE)-conjugated BCMA …; test: flow cytometry; CAR T cells stained with BCMA-PE, 3 days after electroporation; remark: another data set of the same source
Protocol: as §1
Numerous CAR-encoding mRNA constructs were prepared using the mRNA construct of SEQ ID: 29 as a starting point (which encodes a CAR of sequence SEQ ID: 19 and comprises the scFv of sequence SEQ ID: 48). These constructs encoded the same or substantially the same amino acid residues in the scFv complementary-determining regions (CDRs) but varied with respect to the amino acid residues in the scFv framework regions. In making these variations, the experimenter's intent was to humanize the scFv framework regions without reducing BCMA-binding and tumor-killing properties of CAR T cells that express the CAR. For each of the mRNA constructs, CAR T cells were prepared by transfection into human CD8+ cells, substantially as described in Example 1. The CAR T cells made from each mRNA construct were then tested 3 days after electroporation for BCMA binding and/or tumor killing, as substantially described in Example 1.

Binder | BCMA Binding | BCMA Binding (relative to SEQ ID: 54)
B2 | 460 relative (SEQ ID: 48 = 100) | 124 relative to SEQ ID: 54 = 100
B5 | 382 relative (SEQ ID: 48 = 100) | –

molecular target: T2, human BCMA on cells; test: cell-based or functional assay; remark: another data set of the same source

Binder | Killing (% killed), Effector:target ratio of 1:2 [%]
B1 | 77
B2 | 85
B3 | 7
B4 | 83
B5 | 83
